Test results reported in patent US20060148030A1, “Nuclear receptor err y 3” (FUJISAWA PHARMACEUTICAL CO., LTD, priority 2002, published 2006).

Biological target: T1, ERα (Homo sapiens, UniProt P03372)
T1 construct: expressed in transfected cells; host or cells: CV-1 (African green monkey kidney)
T1 sequence (P03372 1-595): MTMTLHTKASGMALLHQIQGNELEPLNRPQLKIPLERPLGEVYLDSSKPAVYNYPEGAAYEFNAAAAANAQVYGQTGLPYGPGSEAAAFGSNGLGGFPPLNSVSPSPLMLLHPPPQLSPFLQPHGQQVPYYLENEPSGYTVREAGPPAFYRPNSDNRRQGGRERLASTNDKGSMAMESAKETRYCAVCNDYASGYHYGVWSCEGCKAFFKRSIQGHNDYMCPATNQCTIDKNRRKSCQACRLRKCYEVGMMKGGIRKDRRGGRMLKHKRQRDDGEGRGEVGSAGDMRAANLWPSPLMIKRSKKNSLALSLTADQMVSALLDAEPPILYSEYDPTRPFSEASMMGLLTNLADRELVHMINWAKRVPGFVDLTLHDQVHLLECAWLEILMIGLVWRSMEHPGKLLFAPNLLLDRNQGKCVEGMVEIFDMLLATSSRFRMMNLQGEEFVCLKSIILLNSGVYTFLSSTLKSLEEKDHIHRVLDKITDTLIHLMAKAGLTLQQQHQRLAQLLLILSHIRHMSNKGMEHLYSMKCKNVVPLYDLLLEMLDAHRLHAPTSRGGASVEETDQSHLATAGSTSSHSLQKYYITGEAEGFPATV
Assay: Reporter gene assay, ERRγ3 or ERRγ2 coexisted with ERα in CV-1 cells
Assay type: cell-based
Conditions: ERRγ2 with ERα, CV-1 cells; FIGS. 19-20
Protocol: The reporter gene assay was performed using CV-1 cells (African green monkey kidney-derived cell line) as hosts. Host cells were transfected with luciferase reporter plasmids and expression plasmids for ERRγ3, ERRγ2, or both. They were then exposed to 4-hydroxytamoxifen at different concentrations (0, 10^−10 to −10^−5 M) for 24 hours, whereupon luciferase activity within the cells was measured.
Transfection was performed as follows: CV-1 cells were suspended at 2×10^5 cells/2.5 ml in DMEM medium supplemented with 10% fetal bovine serum, 2000 U/l of penicillin G, and 100 mg/l streptomycin. These cells were seeded to a 6-well plate at 2.5 ml/well, and cultured for 18 to 24 hours in a CO2 incubator at 37° C. in the presence of 5% CO2. 1 μg of each of the transcription factor expression plasmid, the luciferase reporter plasmid, and another luciferase reporter plasmid for normalizing the measured value (pRL-TK), were dissolved in Opti-MEM (Gibco BRL) to total of 150 μl. 7 μl of the cell transfection reagent LipofectAMINE 2000 (Gibco BRL) was diluted in 143 μl of Opti-MEM, and this was added to the mixture drop by drop while stirring. The mixture was incubated for 20 minutes.
The LipofectAMINE-DNA mixture was diluted in 1.5 ml of Opti-MEM, and added to cells that had been twice washed with 1 ml of PBS(−). The cells were cultured for four hours. The transfection reagent was removed from the culture, and 200 μl of trypsin/EDTA was added to the cells, which were then incubated at 37° C. for five minutes. […] of DMEM was added to suspend the cells, which were transferred to a centrifuge tube, and centrifuged for three minutes at 1000 rpm. After centrifugation, the cells were resuspended in DMEM to a concentration of 1.6×10^4 cells/100 μl, and 100 μl samples were seeded to a 96-well plate. When evaluating agents, a two-fold concentrated solution was made by pre-diluting a 1000 times concentrated agent DMSO solution with culture medium. 50 μl of the solution was mixed with 50 μl of a cell suspension at 1.6×10^4 cells/50 μl, and the culture was incubated in a CO2 incubator at 37° C. and 5% CO2 for 24 hours.
Luciferase activity was measured using the Dual-Luciferase™ Reporter Assay System (Promega). The culture supernatant was removed from each well of the 96-well plate and washed once with 100 μl of PBS(−). 20 μl of ×1 PLB (Passive Lysis Buffer) was added, and the mixture was incubated at room temperature for 15 minutes, and then stored at −20° C. in the freezer until use. […] The protocol for measurement was as follows: 50 μl of Luciferase Assay Reagent II was added to each well, stirred for 0.3 seconds and measured for one second. […] of Stop&Glo™ Reagent was then added, stirred for 0.3 seconds, and measured for one second. […] Average values and standard errors were calculated from triplicate samples.
To confirm whether or not ERRγ3 can regulate the transcription-controlling function of nuclear receptors other than ERRγ2, ERRγ3's function of regulating the transcription-controlling activity of nuclear receptors related to ERRγ (ERα, ERβ, and TR) was evaluated using a reporter gene assay. […] In addition to 4-hydroxytamoxifen, the cells were also contacted with 10^−5 M of (R)-estradiol in experiments related to ERα and ERβ, and 10^−5 M of thyroxine in the experiment related to TR.
The transfected cells were contacted with varying concentrations of 4-hydroxytamoxifen in the absence of […] or presence of 10^−7 M of β-estradiol.

B1: ERRγ2: known human ERRγ isoform, the long form (SEQ ID NO: 6) (protein, listed as Homo sapiens)
chain: MDSVELCLPESFSLHYEEELLCRMSNKDRHIDSSCSSFIKTEPSSPASLTDSVNHHSPGGSSDASGSYSSTMNGHQNGLDSPPLYPSAPILGGSGPVRKLYDDCSSTIVEDPQTKCEYMLNSMPKRLCLVCGDIASGYHYGVASCEACKAFFKRTIQGNIEYSCPATNECEITKRRRKSCQACRFMKCLKVGMLKEGVRLDRVRGGRQKYKRRIDAENSPYLNPQLVQPAKKPYNKIVSHLLVAEPEKIYAMPDPTVPDSDIKALTTLCDLADRELVVIIGWAKHIPGFSTLSLADQMSLLQSAWMEILILGVVYRSLSFEDELVYADDYIMDEDQSKLAGLLDLNNAILQLVKKYKSMKLEKEEFVTLKAIALANSDSMHIEDVEAVQKLQDVLHEALQDYEAGQHMEDPRRAGKMLMTLPLLRQTSTKAVQHFYNIKLEGKVPMHKLFLEMLEAKV
Q: With B1 as the molecule, how does the “enhancement of transcription when ERRγ2 coexisted with ERα” value read?
A: Its value is “showed the function of enhancing transcription”.
